{"source": "patent US20090012268A1", "about": "(B R A H M S, published 2009)", "binders": {"B1": {"name": "IRI-SAb2 (antibody, IgG2a, V domains shown)", "VH": "SCKASGYSFTAYTMNWVKQSHGKNLEWIGLINPFNGGTNYNQKFEGKATLTVDKSSTTAYMELLSLTSEDSAVYYCARRVWDYFDYWGQGTSLTVSS", "VL": "EGSITCKASQNVGTNVAWYQQKGGQSLELLIYGASNRHTGVPDRFTGRGSGTDFTLTITNVQSEDMTNYFCEQYSRYPLTFGAG", "notes": "Mouse monoclonal IgG2a from a hybridoma; also called mAb IRI-SAb2; DSM ACC2664"}, "B2": {"name": "IRI-SAb2 Fab fragment (Fab, V domains shown)", "VH": "B1 VH", "VL": "B1 VL"}, "B3": {"name": "IRI-SAb3 Fab fragment (Fab, V domains shown)", "VH": "B1 VH with K23Y, F34Y, T38A, E45K, T57S, S92T", "VL": "B1 VL with G23V, N36S, R48S, N60D, R76S"}, "B4": {"name": "IRI-SAb3 (antibody, IgG1, V domains shown)", "VH": "B1 VH with K23Y, F34Y, T38A, E45K, T57S, S92T", "VL": "B1 VL with G23V, N36S, R48S, N60D, R76S"}}, "key": {"[1]": {"biological_target": "T1, recombinant human TSHr preparation immobilized on coated tubes (human, UniProt P16473 21-764, limits assumed)", "T1 construct": "also called hTSHr coated tubes; TSHr coated tubes", "experiment": "saturation with acridinium ester labelled antibody on hTSHr coated tubes; Kd1 of a biphasic curve", "procedure": "(§1) 5 ng (−200 000 RLU) of acridinium ester labelled monoclonal antibody (20) and different amounts of unlabeled antibodies were added in 0.3 ml of buffer A to TSHr coated tubes. Tubes were incubated for 24 h at room temperature, washed four times with 2 ml washing buffer, and RLU were measured in a luminometer.\n(§2) The purified antibodies were subsequently labelled with acridinium ester and used in saturation experiments on hTSHr coated tubes."}, "[2]": {"biological_target": "T1, recombinant human TSHr preparation …", "experiment": "saturation with acridinium ester labelled antibody on hTSHr coated tubes; Kd2 of a biphasic curve", "procedure": "as §1, §2"}, "[3]": {"biological_target": "T1, recombinant human TSHr preparation …", "experiment": "displacement of 50% of 125I-labeled TSH from TSHr coated tubes", "procedure": "Selected mAbs and Fabs (generated after papain digestion) were purified by Sepharose-protein A affinity chromatography (ImmunoPure™ Fab preparation Kit, Pierce, Perbio Science, Belgium) and tested for their ability to stimulate cAMP production using JP26 CHO cells in normal isotonic medium (see above). For TBII activity determination, different amounts of antibodies were added in 250 μl of buffer A (20 mM Hepes-NaOH, pH 7.5, 50 mM NaCl, 1% BSA, 10% glycerol, 2 mg/ml mouse IgG) to hTSHr coated tubes. […] The tubes were incubated for 2 h at room temperature, washed four times with 2 ml washing buffer (8 mM Tris-Hl, 60 mM NaCl, 0.02% Tween-20, pH 7.5), and bound radioactivity was counted."}, "[4]": {"biological_target": "human TSH receptor expressed on cells (human, UniProt P16473 21-764)", "experiment": "cell-based or functional assay"}, "mouse TSHr": {"biological_target": "mouse TSHr (mouse, UniProt P47750 22-764)", "sequence (P47750 22-764)": "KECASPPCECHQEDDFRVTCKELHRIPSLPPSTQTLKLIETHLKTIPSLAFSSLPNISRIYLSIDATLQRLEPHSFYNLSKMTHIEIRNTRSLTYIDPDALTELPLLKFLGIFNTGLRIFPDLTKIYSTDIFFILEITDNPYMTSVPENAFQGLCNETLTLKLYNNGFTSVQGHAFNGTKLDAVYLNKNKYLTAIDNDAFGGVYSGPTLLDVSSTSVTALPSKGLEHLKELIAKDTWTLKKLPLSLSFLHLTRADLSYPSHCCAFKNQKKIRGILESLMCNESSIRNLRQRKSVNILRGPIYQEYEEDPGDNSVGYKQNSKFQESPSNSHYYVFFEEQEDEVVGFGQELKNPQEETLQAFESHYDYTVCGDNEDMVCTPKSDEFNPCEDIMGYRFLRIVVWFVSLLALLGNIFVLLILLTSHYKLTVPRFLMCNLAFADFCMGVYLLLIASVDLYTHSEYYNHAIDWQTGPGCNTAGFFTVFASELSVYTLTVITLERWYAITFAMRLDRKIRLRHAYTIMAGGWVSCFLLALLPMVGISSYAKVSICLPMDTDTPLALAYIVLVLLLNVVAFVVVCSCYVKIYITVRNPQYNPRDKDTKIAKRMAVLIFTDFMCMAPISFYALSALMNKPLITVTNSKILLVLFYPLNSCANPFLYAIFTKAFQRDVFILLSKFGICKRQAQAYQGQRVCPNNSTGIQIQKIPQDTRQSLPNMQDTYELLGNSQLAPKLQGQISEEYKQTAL", "experiment": "cell-based or functional assay"}}, "note": "Substitutions are numbered along the chain they refer to. Several values for one entry are separate records, joined by “and”; a condition that tells them apart may be missing. Identical values can stand only once.", "data": [{"binder": "B1", "values": [{"measurement": "Kd", "setting": "[1]", "value": 0.07, "unit": "nM"}, {"measurement": "Kd", "setting": "[2]", "value": 1.23, "unit": "nM"}, {"measurement": "IC50", "setting": "[3]", "value": "0.3 µg/mL and 2 nM"}, {"measurement": "EC50 of cAMP production in JP26 cells, normal salt medium (IgG)", "setting": "[4]", "value": 2.75, "unit": "nM"}, {"measurement": "EC50 of cAMP production in MT3 cells, normal-salt medium", "setting": "mouse TSHr", "value": 1.3, "unit": "nM"}]}, {"binder": "B2", "values": [{"measurement": "EC50 of cAMP production in JP26 cells (Fab)", "setting": "[4]", "value": 1.2, "unit": "nM"}]}, {"binder": "B3", "values": [{"measurement": "EC50 of cAMP production in JP26 cells (Fab)", "setting": "[4]", "value": 74, "unit": "nM"}]}, {"binder": "B4", "values": [{"measurement": "EC50 of cAMP production in MT3 cells, normal-salt medium", "setting": "mouse TSHr", "value": 3.8, "unit": "nM"}]}]}
